Results on one molecule are retold here after publication PMC11636682 (Science Advances, 2024).

No end group written: not given here. *: point of attachment. Farnesyl = CC(C)=CCC/C(C)=C/CC/C(C)=C/C*

For this assay, the target named is T1, phosphodiesterase-δ (PDEδ) (UniProt O43924 1-150).
T1 construct: also called His6-MBP-tev-PDEδ; source: E. coli, purified
Nature of the assay: ITC; 1 mM KRAS4a(167–186)HVR-FMe peptide in the syringe, 200 μM PDEδ in the cell; 25°C; 20 mM Hepes pH 7.3, 150 mM NaCl, 5 mM MgCl2, 1 mM TCEP; single binding site model. The following applies: both partners purified. On the technique in general: In ITC the heat of successive injections is recorded.

T1 sequence (O43924 whole entry, stated change not applied): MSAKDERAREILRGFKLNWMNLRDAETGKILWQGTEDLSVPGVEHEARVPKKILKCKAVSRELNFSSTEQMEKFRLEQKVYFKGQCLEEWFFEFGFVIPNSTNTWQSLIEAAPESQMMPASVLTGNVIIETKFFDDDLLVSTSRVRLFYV

B1: KRAS4a(167–186)HVR-FMe peptide (peptide, UniProt P01116-1 167-186, looked up)
peptide: RLKKISKEEKTPGCVKIKKC(Farnesyl)-OMe
notes: KRAS splice variant KRAS4a, hypervariable region, residues 167 to 186 (20-mer ending at the prenylated cysteine); also called prenylated 20-residue KRAS4a HVR peptide; KRAS4a-HVR peptide; source: synthetic peptide, bought: AnaSpec Peptides Inc
As for B1, the affinity, expressed as Kd, was 27 µM.

One may read the Kd as the equilibrium constant for the complex coming apart. A lower Kd goes with a tighter complex.
